72 sequences from the supplement of paper PMC10567573 can be followed below.

The data set is described as follows: protein stability index of a GFP-peptide fusion (GPS, HEK-293T) (PSI 1-6); higher = more stable.
The mark [1] stands for this setting: treatment: DMSO, c terminus: a fixed tail appended.
The mark [2] stands for this setting: treatment: MLN4924 1 uM, 8 h, c terminus: a fixed tail appended.
Setting [3] is: treatment: DMSO, c terminus: native.
The mark [4] stands for this setting: treatment: MLN4924 1 uM, 8 h, c terminus: native.

± gives the standard deviation.
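Further: 24-mer peptide tiles fused after GFP, lentivirally expressed, FACS-sorted into six equal bins by GFP/DsRed ratio, decoded by Illumina sequencing, PSI is the read-weighted mean bin number.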

For the sequence IRKEMKLLEQAGSLKGSLSVEEQL [CRYL1], the protein stability index reads like this: under setting [1], 4.54 ± 0.53; under setting [2], 4.372 ± 0.012.

On to IRRAYPDANLLNDRVLRAMLKAEE [CCND1], for which the protein stability index runs as follows: under setting [1], 2.96 ± 0.24; under setting [2], 3.52 ± 0.47.

ISKKFGDMSYSIRHSISMPAMRNS [TPD52L1]: the protein stability index reads like this: under setting [1], 2.51 ± 0.41; under setting [2], 2.65 ± 0.52.

ISPGKNATGMEVGWYRPPFSRVVH [MOG]: the protein stability index is, setting by setting: under setting [1], 2.45 ± 0.17; under setting [2], 2.69 ± 0.23.

On to ISRDRLSSYYKFKLTREVLSLFVQ [ZER1], for which the protein stability index stood at 2.11 ± 0.52 under setting [1] and 2.13 ± 0.29 under setting [2].

Take ISSGLRGCMLIELALRGRLQLEAC [GOLPH3]: the protein stability index under setting [1] came out at 3.22 ± 0.62 and the protein stability index under setting [2] was found to be 2.67 ± 0.21.

With ISSTSTKRTYWPDLDAKIREALVL [PLD5], the protein stability index turned out to be 2.38 ± 0.39 under setting [1] and 2.43 ± 0.49 under setting [2].

On to ITDLPRIDVSKREPPPVKQELPPY [EFHC1], for which the protein stability index under setting [1] is 4.37 ± 0.033 and the protein stability index under setting [2] is 4.45 ± 0.17.

Take ITHSTVGSKGEKDLGASSLHVNGE [EHMT1]: the protein stability index was found to be 4.9 ± 0.2 under setting [1] and 5.03 ± 0.24 under setting [2].

Take ITTKIFWGGKAETERGLSRKHIIE [KCNAB2]: the protein stability index was 2.65 ± 0.29 under setting [1] and 2.89 ± 0.33 under setting [2].

For the sequence IVAGGYDERVLENVEHYQELKKMV [ALG2], the protein stability index was 3.14 ± 0.25 under setting [1] and 3.2 ± 0.11 under setting [2].

The sequence IWEQRSATVVMMTKLEERSRVKCD [PTPRD] displayed a protein stability index under setting [1] of 3.29 ± 0.27 and a protein stability index under setting [2] of 3.26 ± 0.41.

On to KAFYKRYRLTEHERAHKGEKPYGC [ZNF649], for which the protein stability index was 3.62 ± 0.93 under setting [1] and 3.16 ± 0.57 under setting [2].

The sequence KAHETLHQSLSLASSPKGTIENIL [CDC25A] displayed a protein stability index under setting [1] of 3.55 ± 0.5 and a protein stability index under setting [2] of 3.59 ± 0.22.

With KAPSKLGLIISGPILQEGMDEEKL [DLC1], the protein stability index runs as follows: under setting [1], 4.47 ± 0.38; under setting [2], 4.54 ± 0.36.

KARGKSGPLFNFDVHDDVRLLSDA [FAM50A]: the protein stability index under setting [1] came to 3.87 ± 0.15 and the protein stability index under setting [2] turned out to be 3.81 ± 0.3.

On to KASALNTKIRALQGSLENMSKLLK [CD207], for which the protein stability index was 2.22 ± 0.33 under setting [1] and 2.26 ± 0.32 under setting [2].

Turning to KAYDHQTQELVAIKIIKNKKAFLN [DYRK1B], the protein stability index came to 2.37 ± 0.22 under setting [1] and 2.62 ± 0.25 under setting [2].

On to KCLQLLGNLGSLEKSVTKDAEGLA [INTS4], for which the protein stability index reads like this: under setting [1], 2.82 ± 0.46; under setting [2], 3.08 ± 0.099.

Sequence KCLVTEAQTLLRLSGVQRVESVFF [RSAD1] registered a protein stability index under setting [1] of 2.53 ± 0.43 and a protein stability index under setting [2] of 2.4 ± 0.25.

As for KCRMEESNAERGTAEPFPRLHNLY [CBY2], the protein stability index is, setting by setting: under setting [1], 2.85 ± 0.27; under setting [2], 2.78 ± 0.15.

With KDQRNPPSLGRVLPDPREACGSSS [RBMY1A1], the protein stability index turned out to be 4.78 ± 0.17 under setting [1] and 5.18 ± 0.095 under setting [2].

As to KDSHDPLPSWAELLRPKYRAPQGC [PBXIP1], the protein stability index under setting [1] stood at 3.01 ± 0.37 and the protein stability index under setting [2] came out at 3.19 ± 0.2.

With KEEEEEDCSEEYLERQLQAEFIES [TAF7L], the protein stability index by setting is: under setting [1], 5.36 ± 0.36; under setting [2], 5.56 ± 0.12.

For KEVFASRISNPSDDNSCEDLEEER [PCMTD2], the protein stability index runs as follows: under setting [1], 5.55 ± 0.33; under setting [2], 5.41 ± 0.31.

Consider KFAMYPPSMIATGSVGAAICGLQQ [CCND2], for which the protein stability index runs as follows: under setting [1], 2.4 ± 0.52; under setting [2], 2.2 ± 0.4.

On to KFLVGTVGSDPLIKSDEECRDLVD [KLHL20], for which the protein stability index is, setting by setting: under setting [1], 4.41 ± 0.78; under setting [2], 4.14 ± 0.47.

Consider KGNRTARIIDKPRVIEVLPRGATA [SEPHS2], for which the protein stability index came out at 3.64 ± 0.22 under setting [1] and 3.77 ± 0.2 under setting [2].

Regarding KHAGKDPVRDECEERNRFTETREE [FAM9B], the protein stability index runs as follows: under setting [1], 5.54 ± 0.2; under setting [2], 5.49 ± 0.2.

As to KIESLMDEIEFLKKLHEEELRDLQ [PRPH], the protein stability index reads like this: under setting [1], 3.14 ± 0.23; under setting [2], 3.61 ± 0.35.

In the case of KILDELEKVLDQVETELQRRNEET [GDAP1], the protein stability index runs as follows: under setting [1], 3.08 ± 0.1; under setting [2], 3.53 ± 0.081.

On to KIQASGETPNSLNTTVIPNGSMAM [LYSMD4], for which the protein stability index was determined as 4.22 ± 0.097 under setting [1] and 4.09 ± 0.2 under setting [2].

Take KKIFAQLDSIIDDRVILSSSTSCL [CRYL1]: the protein stability index worked out at 2.35 ± 0.15 under setting [1] and 2.58 ± 0.3 under setting [2].

On to KKKVGNYYTTPIYRFRMKCHLCVN [YJU2B], for which the protein stability index was determined as 2.21 ± 0.33 under setting [1] and 2.19 ± 0.3 under setting [2].

For KLALDMEISAYRKLLQGEEERLKL [LMNB1], the protein stability index by setting is: under setting [1], 3.24 ± 0.23; under setting [2], 3.28 ± 0.36.

With KLEEERAKLHDVELHQVAERVEAL [GNB5], the protein stability index under setting [1] was 5 ± 0.34 and the protein stability index under setting [2] stood at 5.15 ± 0.18.

KLKALHVDSAEYSCLKAIVLFTSD [NR2F2] gave a protein stability index under setting [1] of 2.45 ± 0.36 and a protein stability index under setting [2] of 2.27 ± 0.15.

Regarding KLKKGICEALEDSDGRQDSPAGEL [MATN2], the protein stability index under setting [1] was determined as 5.3 ± 0.28 and the protein stability index under setting [2] turned out to be 5.31 ± 0.15.

Take KLREKERKKEAKRKISSLSFTLEE [FAM50A]: the protein stability index is 4.29 ± 0.3 under setting [1] and 4.53 ± 0.34 under setting [2].

For KLTREQEELEEALEVERQENEQRR [MNAT1], the protein stability index by setting is: under setting [1], 5.59 ± 0.18; under setting [2], 5.45 ± 0.27.

Consider KPGEGRSALFAGNEWRRPIIQFVE [TRIM29], for which the protein stability index reads like this: under setting [1], 2.34 ± 0.35; under setting [2], 2.86 ± 0.46.

As for KQKVSRIERSSSFSSITDSTMSLN [DVL3], the protein stability index stood at 4.27 ± 0.049 under setting [1] and 4.43 ± 0.16 under setting [2].

Turning to KQLICPICLEMFTKPVVILPCQHN [TRIM63], the protein stability index runs as follows: under setting [1], 2.97 ± 0.31; under setting [2], 3.01 ± 0.43.

Consider KQQENATSCSLELIGDLIGHSSSV [WDR41], for which the protein stability index stood at 3.02 ± 0.37 under setting [1] and 3.17 ± 0.11 under setting [2].

In turn, KRKLGLTALVGLRQNLSKSWLDVQ [TPD52L3] displayed a protein stability index under setting [1] of 2.17 ± 0.71 and a protein stability index under setting [2] of 2.16 ± 0.42.

For KSCYNGRFQLLYVACGMVHLLIPE [DNAAF3], the protein stability index by setting is: under setting [1], 3.37 ± 0.63; under setting [2], 2.77 ± 0.36.

In the case of KSIDPVLMAPTCVFLASKVEEFGV [CCNC], the protein stability index worked out at 1.92 ± 0.11 under setting [1] and 2.05 ± 0.34 under setting [2].

Take KVAKLLGYSTHADFVLEMNTAKST [NLN]: the protein stability index amounted to 1.9 ± 0.33 under setting [1] and 2.35 ± 0.24 under setting [2].

Consider KVRPSHKRCIVILREIPETTPIEE [LARP4], for which the protein stability index turned out to be 2.59 ± 0.21 under setting [1] and 2.58 ± 0.35 under setting [2].

For KVSYLKQKGLGGAMVWALDLDDFA [CHIT1], the protein stability index came out at 1.85 ± 0.49 under setting [1] and 2.36 ± 0.3 under setting [2].

Turning to KYDPTIEDSYRKQVEVDAQQCMLE [RAP1B], the protein stability index turned out to be 4.55 ± 0.12 under setting [1] and 4.66 ± 0.11 under setting [2].

LAFVGGLPLAYQQTSAFARQPRDE [TMEM175]: the protein stability index came to 3 ± 0.31 under setting [1] and 3.06 ± 0.15 under setting [2].

In the case of LAHLGRHMEALEIAANLENKATNT [C8orf76], the protein stability index is, setting by setting: under setting [1], 4.22 ± 0.17; under setting [2], 4.29 ± 0.37.

LAKTGEGSYGVVFKCRNKTSGQVV [CDKL4]: the protein stability index under setting [1] amounted to 2.72 ± 0.31 and the protein stability index under setting [2] came to 2.75 ± 0.2.

Regarding LALHPEAPGLYNHLPWQYHAGQGG [CCDC3], the protein stability index runs as follows: under setting [1], 3.2 ± 0.5; under setting [2], 2.63 ± 0.28.

For LALLLCAGQVTALPVNSPMNKGDT [CHGA], the protein stability index under setting [1] worked out at 2.68 ± 0.83 and the protein stability index under setting [2] was 2.59 ± 0.5.

On to LASYLEKVRALEEANADLEVKIRD [KRT13], for which the protein stability index is, setting by setting: under setting [1], 3.52 ± 0.22; under setting [2], 3.56 ± 0.26.

As for LCCAFSTDGSVLAAGTHDGSVYFW [WSB1], the protein stability index by setting is: under setting [1], 2.78 ± 0.78; under setting [2], 2.45 ± 0.78.

Consider LCEKAKEILTKESNVQEVRCPVTV [PPP2CA], for which the protein stability index was found to be 4.11 ± 0.32 under setting [1] and 4.44 ± 0.19 under setting [2].

Take LCPCLRSGIGSSQALGPSPPLFG [MYCL]: the protein stability index is 2.54 ± 0.84 under setting [3] and 2.11 ± 0.26 under setting [4].

With LDDEDDTSIGMPSLMYRSPPGAEE [RETREG3], the protein stability index reads like this: under setting [1], 5.44 ± 0.23; under setting [2], 5.39 ± 0.26.

As for LDKSTTGVSEILLKTQMKMSLKCL [FEM1B], the protein stability index is 2.6 ± 0.31 under setting [1] and 2.17 ± 0.26 under setting [2].

Regarding LEDELDKSVQGTGLAFIAFTEAMT [SLC6A17], the protein stability index reads like this: under setting [1], 2.73 ± 0.35; under setting [2], 2.82 ± 0.51.

LEEFQLALKHYVESASSQSGCLRI [NECAB1] had a protein stability index under setting [1] of 2.21 ± 0.36 and a protein stability index under setting [2] of 2.16 ± 0.17.

LEETEPPLEPEDALSDAEFEGEGD [P3H4]: the protein stability index by setting is: under setting [1], 5.49 ± 0.33; under setting [2], 5.55 ± 0.17.

Take LEKDFSIYGGELGPMMKLKRHFVA [ACSBG2]: the protein stability index by setting is: under setting [1], 2.23 ± 0.2; under setting [2], 2.26 ± 0.53.

Sequence LEKGADVNRKSVKGNTALHDCAES [FEM1C] registered a protein stability index under setting [1] of 5.18 ± 0.29 and a protein stability index under setting [2] of 5.38 ± 0.28.

LELLVNNGADVNIQSKDGKSPLHM [ANKRD44]: the protein stability index runs as follows: under setting [1], 4.06 ± 0.23; under setting [2], 4.01 ± 0.3.

In the case of LFAGPHSTLTPPCSPPEDGLCPH [SNX8], the protein stability index came to 3.79 ± 0.52 under setting [3] and 3.85 ± 0.22 under setting [4].

Take LFAPLKLQMEFKAVQQVQRLPFLS [POMP]: the protein stability index came to 2.51 ± 0.82 under setting [1] and 2.46 ± 0.75 under setting [2].

For LFQIDVYDFMNSAFSPIVILTERV [MIA2], the protein stability index by setting is: under setting [1], 2.75 ± 0.73; under setting [2], 3.06 ± 0.91.

Take LGAVAVFAVGYIKISWSTWGEMTL [SLC19A2]: the protein stability index turned out to be 2.97 ± 0.68 under setting [1] and 2.97 ± 0.73 under setting [2].
